The source of these data is the supplement of paper PMC10126150.

The data set deals with ATP. Put plainly: switch fluorescence ratio, 500 uM ATP over buffer (Cy3 cluster intensity, sum of 5 cycles each) (fold (ratio)); higher = stronger signal-on switching upon ATP binding; sequences stand for … in TCGTCGGCAGCGTCAGATGTGTATAAGAGACAGTTTTTTTTTTTTTTTTTTTTTTTTT…TC. Conditions: aptamer strand: ATP DNA aptamer (quencher-CACCTGGGGGAGTATTGCGGAGGAAGG + anchor), 100 nM annealed; ATP concentration: 500 uM. The essentials:
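Cy3-labelled switching-strand clusters on a modified Illumina MiSeq flow-cell were annealed to 100 nM quencher-labelled ATP aptamer and imaged first in selection buffer, then after 15 min with 500 uM ATP at 22 °C. NaOH stripping and re-annealing separated each of five buffer/ATP cycles, and clusters outside 100-1000 RFU were excluded. The fluorescence ratio sums target-cycle Cy3 intensity over buffer-cycle Cy3 intensity per cluster and averages it per switch-domain sequence.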

± gives the standard deviation of the averaged measurements.
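Also: ATP exposure 15 min at 22 °C before imaging.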

With ATGTATTTTC, the switch fluorescence ratio was 0.986 ± 0.041.

On to ATGTATTTTT, for which the switch fluorescence ratio amounted to 1 ± 0.031.

With ATGTCACAAA, the switch fluorescence ratio came out at 1.03 ± 0.059.

For ATGTCGACAC, the switch fluorescence ratio is 0.976 ± 0.02.

As to ATGTGAGTTC, the switch fluorescence ratio amounted to 0.985 ± 0.022.

Turning to ATGTGATTTG, the switch fluorescence ratio came to 0.985 ± 0.035.

Regarding ATGTGCATAT, the switch fluorescence ratio was 1.03 ± 0.02.

In the case of ATGTGCTGCG, the switch fluorescence ratio was 0.993 ± 0.031.

ATGTGCTTC: the switch fluorescence ratio was 1.005 ± 0.0078.

ATGTGGCTAG: the switch fluorescence ratio worked out at 1.01 ± 0.032.

With ATGTGGGCGG, the switch fluorescence ratio came to 0.991 ± 0.028.

For ATGTGGGGTT, the switch fluorescence ratio came to 1.01 ± 0.014.

For ATGTGGTGGT, the switch fluorescence ratio came to 1 ± 0.043.

For ATGTGGTTGT, the switch fluorescence ratio was 0.97 ± 0.019.

For the sequence ATGTGTAGAG, the switch fluorescence ratio came out at 0.995 ± 0.027.

As to ATGTGTCTG, the switch fluorescence ratio came out at 0.987 ± 0.014.

With ATGTGTCTTT, the switch fluorescence ratio amounted to 0.979 ± 0.03.

For the sequence ATGTGTTGGT, the switch fluorescence ratio was found to be 1 ± 0.011.

ATGTTAAAAG: the switch fluorescence ratio came out at 1.01 ± 0.035.

On to ATGTTAACG, for which the switch fluorescence ratio worked out at 0.999 ± 0.043.

For the sequence ATGTTAATCT, the switch fluorescence ratio came to 1.02 ± 0.035.

As to ATGTTATAGA, the switch fluorescence ratio was 0.986 ± 0.034.

With ATGTTCAACT, the switch fluorescence ratio was 0.998 ± 0.016.

As for ATGTTCATGG, the switch fluorescence ratio is 0.99 ± 0.043.

Turning to ATGTTCCTTT, the switch fluorescence ratio amounted to 0.999 ± 0.023.

As to ATGTTCGACA, the switch fluorescence ratio came to 0.965 ± 0.027.

Regarding ATGTTCGAGA, the switch fluorescence ratio stood at 0.9855 ± 0.0066.

ATGTTCGTCA: the switch fluorescence ratio was determined as 0.988 ± 0.044.

As for ATGTTCTTCT, the switch fluorescence ratio was found to be 0.982 ± 0.018.

For ATGTTGCCGT, the switch fluorescence ratio turned out to be 1.01 ± 0.13.

For the sequence ATGTTGCGGG, the switch fluorescence ratio amounted to 1 ± 0.041.

Turning to ATGTTGGGGA, the switch fluorescence ratio was 0.996 ± 0.019.

ATGTTGGTTG: the switch fluorescence ratio is 1.03 ± 0.04.

In the case of ATGTTGTAAC, the switch fluorescence ratio stood at 0.985 ± 0.01.

On to ATGTTGTAAG, for which the switch fluorescence ratio is 1.01 ± 0.039.

As for ATGTTGTGTT, the switch fluorescence ratio came to 0.9626 ± 0.0029.

ATGTTTAGGG: the switch fluorescence ratio amounted to 1.01 ± 0.042.

For ATGTTTATCA, the switch fluorescence ratio is 1.01 ± 0.055.

Turning to ATGTTTATGG, the switch fluorescence ratio is 0.987 ± 0.012.

Take ATGTTTCGC: the switch fluorescence ratio worked out at 0.999 ± 0.045.

Turning to ATGTTTGGGA, the switch fluorescence ratio came out at 0.967 ± 0.047.

Take ATGTTTGGGT: the switch fluorescence ratio stood at 1.01 ± 0.019.

For the sequence ATGTTTGGTG, the switch fluorescence ratio came out at 0.97 ± 0.019.

In the case of ATGTTTTTCG, the switch fluorescence ratio came out at 0.9718 ± 0.0029.

For ATGTTTTTGC, the switch fluorescence ratio turned out to be 1.04 ± 0.1.

In the case of ATTAAAAATG, the switch fluorescence ratio is 1.02 ± 0.042.

Regarding ATTAAACGAG, the switch fluorescence ratio was found to be 1.01 ± 0.031.

As to ATTAAAGGAG, the switch fluorescence ratio came out at 1.01 ± 0.017.

On to ATTAAATACC, for which the switch fluorescence ratio was 1.25 ± 0.29.

As for ATTAAATAGC, the switch fluorescence ratio amounted to 1.03 ± 0.043.

Consider ATTAAATGAG, for which the switch fluorescence ratio was 1.01 ± 0.022.

Consider ATTAAGCCAC, for which the switch fluorescence ratio is 1.12 ± 0.053.

In the case of ATTAAGTTTG, the switch fluorescence ratio amounted to 1 ± 0.031.

As for ATTAATCTTG, the switch fluorescence ratio was determined as 1.03 ± 0.046.

For ATTAATGCGG, the switch fluorescence ratio worked out at 1.07 ± 0.032.

On to ATTAATTCCG, for which the switch fluorescence ratio is 1.02 ± 0.0097.

With ATTACACTGC, the switch fluorescence ratio was 1.01 ± 0.066.

In the case of ATTACATTTT, the switch fluorescence ratio was found to be 1.03 ± 0.031.

ATTACTCACC: the switch fluorescence ratio was 1.44 ± 0.03.

With ATTAGACATT, the switch fluorescence ratio is 1.003 ± 0.0016.

Regarding ATTAGAGGGA, the switch fluorescence ratio worked out at 1.01 ± 0.029.

Regarding ATTAGAGGTG, the switch fluorescence ratio is 1.08 ± 0.03.

Regarding ATTAGCATCG, the switch fluorescence ratio worked out at 0.981 ± 0.026.

For ATTAGGCAAT, the switch fluorescence ratio stood at 1.22 ± 0.061.

On to ATTAGGTCTG, for which the switch fluorescence ratio was 0.941 ± 0.044.

As to ATTAGTAACG, the switch fluorescence ratio was 1.03 ± 0.0071.

In the case of ATTAGTAAGG, the switch fluorescence ratio was determined as 1.01 ± 0.011.
